Test results published in patent publication US20240124565A1 (DIADEM S R L, published 2024).
Where no end group is shown, it is not given here.

Target: T1, peptide CRTEEENLRKKGEPHH (SEQ ID NO: 2) conjugated with BSA (human, also: conjugated with BSA by the glutaraldehyde method)
T1 construct: 16-residue immunogen derived from human p53 282-297, with Cys in place of the first Arg; ELISA plates were coated with 'the antigen'; also called the antigen; peptide used as antigen
T1 peptide: CRTEEENLRKKGEPHH
Assay: ELISA, plate coated with the antigen, hybridoma supernatant dilutions
Experimental: The animals' splenocytes were fused with mouse myeloma cells (SP2/O cell line). The fusion products were subjected to screening against the antigen to select the antibody-producing clones. The growth of these clones was continued. This first screening was performed by ELISA methodology. The positive clones were labeled as “parental clones” and frozen after 3 passages. An antigen coating was created onto ELISA plates, and successively the fusion product supernatant was added. The serum of the immunized animals was used as a positive control in ELISA (Example 2).
After the fusion between the splenocytes of the mouse with the best antibody titer and mouse myeloma cells, an ELISA assay was performed to evaluate the fusion products. A coating with the antigen was created in a 96-well ELISA plate and serial dilutions of the supernatant from various clones were added to each well to evaluate their antibody production by spectrophotometric reading. The clones with the highest optical density at 450 nm (OD₄₅₀ₙₘ) were transferred to 24-well plates and after their growth the ELISA assay was repeated, the clones with the highest antibody production were transferred to 6-well plates, grown and tested again by ELISA. The procedure was repeated also for the clones transferred to culture flasks.

binding result: binds
B1: 2D3A8 antibody (antibody)
heavy: EVQLQQSGPELVKPGASVKMSCKASGYTFTSYVMHWVKQKPGQGLEWIGYINPYNDGTKYNEKFKGKATLTSDKSSSTAYMELSSLTSEDSAVYYCARGGYYAMDYWGQGTSVTVSSESQSFPNVFPLVSCESPLSDKNLVAMGCLARDFLPSTISFTWNYQNNTEVIQGIRTFPTLRTGGKYLATSQVLLSPKSILEGSDEYLVCKIHYGGKNRDLHVPIPAVAEMNPNVNVFVPPRDGFSGPAPRKSKLICEATNFTPKPITVSWLKDGKLVESGFTTDPVTIENKGSTPQTYKVISTLTISEIDWLNLNVYTCRVDHRGLTFLKNVSSTCAASPSTDILTFTIPPSFADIFLSKSANLTCLVSNLATYETLNISWASQSGEPLETKIKIMESHPNGTFSAKGVASVCVEDWNNRKEFVCTVTHRDLPSPQKKFISKPNEVHKHPPAVYLLPPAREQLNLRESATVTCLVKGFSPADISVQWLQRGQLLPQEKYVTSAPMPEPGAPGFYFTHSILTVTEEEWNSGETYTCVVGHEALPHLVTERTVDKSTGKPTLYNVSLIMSDTGGTCY
light: DIQMTQTTSSLSASLGDRVTISCRASQDISNYLNWYQQKPDGTVKLLIYYTSRLHSGVPSRFSGSGSGTDYSLTISNLEQEDIATYFCQQGNTLPYTFGGGTKLEIKRADAAPTVSIFPPSSEQLTSGGASVVCFLNNFYPKDINVKWKIDGSERQNGVLNSWTDQDSKDSTYSMSSTLTLTKDEYERHNSYTCEATHKTSTSPIVKSFNRNEC
notes: Mouse monoclonal from a hybridoma, purified from the clone's supernatant; also called clone 2D3A8
